Experimental data published in paper PMC5371818, “Suppression of FOXM1 Transcriptional Activities via a Single-Stranded DNA Aptamer Generated by SELEX”.

Tests used:
His-FOXM1 full-length = biological target: T1, His-FOXM1 full-length (UniProt Q08050 1-763); experiment: fluorescence polarization; EMSA and FP: 20 mM Tris-Cl, 50 mM KCl, 10% glycerol, 0.5 mM EDTA, 0.2 mM DTT, pH 7.6, 30 min on ice; EMSA 50 nM probe, FP 10 nM probe (50 nM in Fig. 1D legend); settings: protein: recombinant, tags: C-terminal His6 (encoded by reverse primer S6)
T1 sequence: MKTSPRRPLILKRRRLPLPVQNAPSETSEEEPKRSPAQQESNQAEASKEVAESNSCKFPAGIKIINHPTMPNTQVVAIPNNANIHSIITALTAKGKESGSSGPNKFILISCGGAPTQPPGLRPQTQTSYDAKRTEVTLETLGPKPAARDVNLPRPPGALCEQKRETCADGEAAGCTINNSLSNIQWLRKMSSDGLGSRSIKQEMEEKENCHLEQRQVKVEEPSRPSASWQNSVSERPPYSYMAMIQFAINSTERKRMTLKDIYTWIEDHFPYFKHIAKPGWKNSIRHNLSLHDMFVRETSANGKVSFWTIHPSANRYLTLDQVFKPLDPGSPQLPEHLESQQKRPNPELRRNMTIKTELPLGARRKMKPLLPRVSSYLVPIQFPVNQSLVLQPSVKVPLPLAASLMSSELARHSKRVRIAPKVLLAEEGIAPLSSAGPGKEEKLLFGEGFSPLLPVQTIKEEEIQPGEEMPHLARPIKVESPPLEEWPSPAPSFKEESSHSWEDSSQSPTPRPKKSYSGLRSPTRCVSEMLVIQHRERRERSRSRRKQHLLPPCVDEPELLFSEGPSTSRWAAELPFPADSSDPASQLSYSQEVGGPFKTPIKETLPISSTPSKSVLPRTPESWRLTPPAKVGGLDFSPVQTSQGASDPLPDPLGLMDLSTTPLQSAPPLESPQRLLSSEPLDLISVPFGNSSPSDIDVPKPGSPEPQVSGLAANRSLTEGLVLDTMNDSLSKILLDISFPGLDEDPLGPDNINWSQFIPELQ

GST-FOXM1 DBD [1] = biological target: T2, GST-FOXM1 DBD (UniProt Q08050 225-355); experiment: as above; settings: protein: recombinant, tags: N-terminal GST (pGEX-4T-1)
T2 sequence: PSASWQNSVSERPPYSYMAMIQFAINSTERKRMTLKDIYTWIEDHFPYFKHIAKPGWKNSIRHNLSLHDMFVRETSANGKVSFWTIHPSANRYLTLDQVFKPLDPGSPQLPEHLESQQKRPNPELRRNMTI

GST-FOXM1 DBD [2] = biological target: T2, GST-FOXM1 DBD; experiment: EMSA; EMSA and FP: 20 mM Tris-Cl, 50 mM KCl, 10% glycerol, 0.5 mM EDTA, 0.2 mM DTT, pH 7.6, 30 min on ice; EMSA 50 nM probe, FP 10 nM probe (50 nM in Fig. 1D legend); settings: protein: recombinant; tags: N-terminal GST (pGEX-4T-1); label: 5'-ROX
[3] = label: 5'-ROX (hot) or none (cold)
[4] = label: 5'-FAM on forward strand (hot) or none (cold), blunt

B1: FOXM1 Apt (C1) (ssDNA)
DNA: TCACTTCACACCGCATCTCTACGTCCGGTTGCGCTTTCCTTT
- Kd (His-FOXM1 full-length; [3]): 172 ± 26.6 nM
- Kd (GST-FOXM1 DBD [1]; [3]): 64.8 ± 25.8 nM

B2: M-FOXM1 Apt (ssDNA)
DNA: TCACTTCACACCGCATCTCTACGTCCGGTTGCGCTTTCCTTT
modifications: phosphorothioate internucleotide linkages
- Kd (His-FOXM1 full-length): 63.9 ± 6.6 nM

B3: FOXM1 dsDNA probe (dsDNA)
DNA 1: TTTGTTTATTTGTTTGTTTATTTG
DNA 2: CAAATAAACAAACAAATAAACAAA
- Kd (His-FOXM1 full-length; [4]): 214 ± 249 nM
- Kd (GST-FOXM1 DBD [1]; [4]): 543 ± 148 nM

B4: Control Apt (ssDNA)
DNA: TCACTTAAAAAAAAAAAACTCATGAAAAAAAAAAAATCCTTT
- binding result (GST-FOXM1 DBD [2]): no binding
